{
  "source": "patent US20160136234A1",
  "test_in_all_cases": "cell-based or functional assay",
  "key": {"SGK2 (h) (human)": {"biological_target": "T1, SGK2 (h) (human) (UniProt Q9HBY8)", "T1 sequence (looked up)": "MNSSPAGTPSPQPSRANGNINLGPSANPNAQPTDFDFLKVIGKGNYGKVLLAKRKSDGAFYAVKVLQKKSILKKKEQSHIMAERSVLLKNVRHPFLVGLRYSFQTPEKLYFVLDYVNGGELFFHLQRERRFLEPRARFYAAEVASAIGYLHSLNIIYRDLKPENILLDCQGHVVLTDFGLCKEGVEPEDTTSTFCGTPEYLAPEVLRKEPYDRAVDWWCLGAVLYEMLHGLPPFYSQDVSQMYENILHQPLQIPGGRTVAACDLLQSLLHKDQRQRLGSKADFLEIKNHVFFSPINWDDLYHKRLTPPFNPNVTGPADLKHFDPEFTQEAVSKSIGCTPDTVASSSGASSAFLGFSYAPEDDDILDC"}, "[1]": {"biological_target": "PDGFRα (V561D) (h) (human) (UniProt P16234)", "sequence (P16234 550-1089 V561D limits assumed)": "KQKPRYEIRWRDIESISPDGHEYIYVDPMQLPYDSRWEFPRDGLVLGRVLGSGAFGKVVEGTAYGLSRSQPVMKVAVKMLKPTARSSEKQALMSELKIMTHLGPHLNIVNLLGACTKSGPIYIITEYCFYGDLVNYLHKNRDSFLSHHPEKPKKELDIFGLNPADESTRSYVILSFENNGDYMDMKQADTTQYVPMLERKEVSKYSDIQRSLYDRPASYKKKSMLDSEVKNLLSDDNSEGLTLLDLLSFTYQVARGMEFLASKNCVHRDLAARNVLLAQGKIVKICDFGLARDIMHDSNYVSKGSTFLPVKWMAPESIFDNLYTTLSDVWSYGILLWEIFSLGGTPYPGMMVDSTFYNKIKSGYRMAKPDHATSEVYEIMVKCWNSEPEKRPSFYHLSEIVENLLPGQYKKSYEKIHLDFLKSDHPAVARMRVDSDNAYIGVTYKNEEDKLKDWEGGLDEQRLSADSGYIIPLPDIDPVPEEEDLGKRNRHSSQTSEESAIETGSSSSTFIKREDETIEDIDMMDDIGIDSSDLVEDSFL"}, "Met(M1268T) (h) (human)": {"biological_target": "Met(M1268T) (h) (human) (UniProt P08581)"}, "PDGFRα (h) (human)": {"biological_target": "PDGFRα (h) (human) (UniProt P16234)", "sequence (P16234 550-1089 limits assumed)": "as the sequence (P16234 550-1089 V561D limits assumed) above, with D12V counted along it"}, "DCAMKL2 (h) (human)": {"biological_target": "T2, DCAMKL2 (h) (human) (UniProt Q8N568)", "T2 sequence (looked up)": "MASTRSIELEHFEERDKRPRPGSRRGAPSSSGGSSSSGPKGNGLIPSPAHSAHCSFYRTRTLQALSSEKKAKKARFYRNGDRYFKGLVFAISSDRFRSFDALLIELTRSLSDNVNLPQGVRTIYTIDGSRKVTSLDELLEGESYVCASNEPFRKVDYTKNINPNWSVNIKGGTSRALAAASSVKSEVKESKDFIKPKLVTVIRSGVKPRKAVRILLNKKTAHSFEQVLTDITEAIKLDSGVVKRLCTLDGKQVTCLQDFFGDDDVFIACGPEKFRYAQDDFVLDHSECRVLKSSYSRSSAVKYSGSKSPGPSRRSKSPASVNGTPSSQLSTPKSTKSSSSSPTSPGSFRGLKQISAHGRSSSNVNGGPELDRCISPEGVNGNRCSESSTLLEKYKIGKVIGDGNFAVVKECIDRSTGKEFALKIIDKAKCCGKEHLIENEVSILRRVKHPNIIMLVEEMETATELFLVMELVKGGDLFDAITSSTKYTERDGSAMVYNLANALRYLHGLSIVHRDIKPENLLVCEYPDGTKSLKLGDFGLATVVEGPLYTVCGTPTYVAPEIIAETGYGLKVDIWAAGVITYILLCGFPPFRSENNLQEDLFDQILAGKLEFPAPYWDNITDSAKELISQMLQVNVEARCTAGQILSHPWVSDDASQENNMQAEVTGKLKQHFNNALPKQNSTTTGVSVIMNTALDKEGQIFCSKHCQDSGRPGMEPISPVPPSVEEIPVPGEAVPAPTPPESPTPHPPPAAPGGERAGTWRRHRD"}, "WNK3 (h) (human)": {"biological_target": "WNK3 (h) (human) (UniProt Q9BYP7)"}, "Met(D1246H) (h) (human)": {"biological_target": "Met(D1246H) (h) (human) (UniProt P08581)"}, "IRAK1 (h) (human)": {"biological_target": "IRAK1 (h) (human) (UniProt P51617)"}, "JNK3 (h) (human)": {"biological_target": "JNK3 (h) (human) (UniProt P53779)"}, "PKBγ (h) (human)": {"biological_target": "PKBγ (h) (human) (UniProt Q9Y243)", "sequence (Q9Y243 whole entry)": "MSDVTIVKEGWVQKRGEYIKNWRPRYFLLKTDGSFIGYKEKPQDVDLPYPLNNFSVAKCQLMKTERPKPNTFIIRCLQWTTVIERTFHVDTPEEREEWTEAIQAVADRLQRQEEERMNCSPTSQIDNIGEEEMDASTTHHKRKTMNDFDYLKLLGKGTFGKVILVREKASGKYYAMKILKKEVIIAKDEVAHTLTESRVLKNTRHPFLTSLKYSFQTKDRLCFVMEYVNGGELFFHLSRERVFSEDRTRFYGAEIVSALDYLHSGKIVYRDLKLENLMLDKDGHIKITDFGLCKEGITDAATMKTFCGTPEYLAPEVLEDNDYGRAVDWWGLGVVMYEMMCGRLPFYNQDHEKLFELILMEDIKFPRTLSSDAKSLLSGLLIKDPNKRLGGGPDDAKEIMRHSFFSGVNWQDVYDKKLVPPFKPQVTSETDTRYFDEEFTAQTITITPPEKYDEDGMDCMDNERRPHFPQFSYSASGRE"}, "PKCδ (h) (human)": {"biological_target": "PKCδ (h) (human) (UniProt Q05655)"}, "Mer (h) (human)": {"biological_target": "T3, Mer (h) (human) (UniProt Q12866)", "T3 sequence (looked up)": "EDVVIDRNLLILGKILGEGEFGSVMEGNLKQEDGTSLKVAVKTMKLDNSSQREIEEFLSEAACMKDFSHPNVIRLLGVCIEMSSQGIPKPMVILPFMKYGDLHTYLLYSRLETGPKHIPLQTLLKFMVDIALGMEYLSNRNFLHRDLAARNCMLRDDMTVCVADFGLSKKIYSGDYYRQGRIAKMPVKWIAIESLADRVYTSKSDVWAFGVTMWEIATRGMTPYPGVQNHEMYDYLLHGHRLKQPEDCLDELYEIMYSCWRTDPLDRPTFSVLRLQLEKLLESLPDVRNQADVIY"}, "MEK1 (h) (human)": {"biological_target": "MEK1 (h) (human) (UniProt Q02750)"}, "mTOR/FKBP12 (h) (human)": {"biological_target": "mTOR/FKBP12 (h) (human) (UniProt P42345)", "sequence (P42345 1362-2549 limits assumed, chain 1 of 2)": "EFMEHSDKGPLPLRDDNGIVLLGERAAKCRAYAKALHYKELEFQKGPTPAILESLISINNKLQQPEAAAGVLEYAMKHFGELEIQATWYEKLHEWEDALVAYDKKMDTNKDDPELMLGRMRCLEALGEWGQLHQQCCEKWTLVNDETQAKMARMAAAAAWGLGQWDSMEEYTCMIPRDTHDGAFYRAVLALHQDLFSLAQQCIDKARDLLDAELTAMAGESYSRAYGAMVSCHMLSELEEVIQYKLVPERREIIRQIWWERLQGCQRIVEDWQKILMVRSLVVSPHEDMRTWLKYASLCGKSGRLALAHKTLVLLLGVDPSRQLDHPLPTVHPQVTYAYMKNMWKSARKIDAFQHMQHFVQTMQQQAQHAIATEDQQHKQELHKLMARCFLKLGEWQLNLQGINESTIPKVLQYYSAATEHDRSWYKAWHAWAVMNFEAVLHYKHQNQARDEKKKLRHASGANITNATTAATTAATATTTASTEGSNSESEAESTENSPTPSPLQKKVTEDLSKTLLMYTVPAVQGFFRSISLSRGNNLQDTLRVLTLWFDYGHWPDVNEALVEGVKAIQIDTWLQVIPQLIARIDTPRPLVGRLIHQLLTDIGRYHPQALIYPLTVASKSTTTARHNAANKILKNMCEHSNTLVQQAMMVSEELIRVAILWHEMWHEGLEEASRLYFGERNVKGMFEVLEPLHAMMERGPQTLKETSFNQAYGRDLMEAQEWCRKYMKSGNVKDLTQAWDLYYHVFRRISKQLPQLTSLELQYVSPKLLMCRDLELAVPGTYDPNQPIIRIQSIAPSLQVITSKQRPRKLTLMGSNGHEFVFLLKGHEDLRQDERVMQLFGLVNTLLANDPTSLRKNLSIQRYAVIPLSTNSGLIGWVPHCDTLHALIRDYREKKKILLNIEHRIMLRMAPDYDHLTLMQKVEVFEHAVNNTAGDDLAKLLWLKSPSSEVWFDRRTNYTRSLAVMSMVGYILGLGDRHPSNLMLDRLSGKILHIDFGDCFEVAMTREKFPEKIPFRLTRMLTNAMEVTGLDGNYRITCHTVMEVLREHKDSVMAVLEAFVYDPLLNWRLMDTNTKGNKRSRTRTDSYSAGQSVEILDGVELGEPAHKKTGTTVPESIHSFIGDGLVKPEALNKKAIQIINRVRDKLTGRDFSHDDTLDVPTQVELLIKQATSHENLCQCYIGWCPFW", "sequence (P62942 whole entry, chain 2 of 2, further chain)": "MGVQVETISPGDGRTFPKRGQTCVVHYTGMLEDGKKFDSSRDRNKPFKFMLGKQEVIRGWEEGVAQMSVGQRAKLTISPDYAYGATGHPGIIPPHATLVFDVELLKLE"}, "EGFR (h) (human)": {"biological_target": "EGFR (h) (human) (UniProt P00533)"}, "CDK2/cyclinA (h) (human)": {"biological_target": "CDK2/cyclinA (h) (human) (UniProt P24941)"}, "Rsk1 (h) (human)": {"biological_target": "Rsk1 (h) (human) (UniProt Q15418)", "sequence (Q15418 whole entry)": "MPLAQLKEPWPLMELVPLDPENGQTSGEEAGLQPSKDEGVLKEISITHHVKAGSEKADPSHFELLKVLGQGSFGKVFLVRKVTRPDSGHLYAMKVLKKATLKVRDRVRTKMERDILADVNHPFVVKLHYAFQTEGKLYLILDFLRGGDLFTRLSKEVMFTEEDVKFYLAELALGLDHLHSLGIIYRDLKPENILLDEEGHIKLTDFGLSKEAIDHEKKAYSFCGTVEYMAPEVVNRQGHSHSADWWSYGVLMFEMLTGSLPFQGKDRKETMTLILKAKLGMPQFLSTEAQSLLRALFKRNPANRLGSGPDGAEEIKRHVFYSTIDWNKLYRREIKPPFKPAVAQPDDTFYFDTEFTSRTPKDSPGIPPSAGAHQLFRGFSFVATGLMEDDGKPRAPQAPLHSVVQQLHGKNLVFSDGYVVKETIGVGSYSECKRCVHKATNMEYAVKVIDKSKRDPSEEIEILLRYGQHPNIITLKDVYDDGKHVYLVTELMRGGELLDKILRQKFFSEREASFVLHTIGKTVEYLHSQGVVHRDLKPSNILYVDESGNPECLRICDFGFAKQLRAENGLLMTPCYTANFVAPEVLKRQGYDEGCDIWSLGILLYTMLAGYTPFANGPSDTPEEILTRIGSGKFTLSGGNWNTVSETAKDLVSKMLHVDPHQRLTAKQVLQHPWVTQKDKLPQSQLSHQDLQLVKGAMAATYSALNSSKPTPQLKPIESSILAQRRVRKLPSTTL"}, "PAK2 (h) (human)": {"biological_target": "PAK2 (h) (human) (UniProt Q13177)", "sequence (Q13177 whole entry)": "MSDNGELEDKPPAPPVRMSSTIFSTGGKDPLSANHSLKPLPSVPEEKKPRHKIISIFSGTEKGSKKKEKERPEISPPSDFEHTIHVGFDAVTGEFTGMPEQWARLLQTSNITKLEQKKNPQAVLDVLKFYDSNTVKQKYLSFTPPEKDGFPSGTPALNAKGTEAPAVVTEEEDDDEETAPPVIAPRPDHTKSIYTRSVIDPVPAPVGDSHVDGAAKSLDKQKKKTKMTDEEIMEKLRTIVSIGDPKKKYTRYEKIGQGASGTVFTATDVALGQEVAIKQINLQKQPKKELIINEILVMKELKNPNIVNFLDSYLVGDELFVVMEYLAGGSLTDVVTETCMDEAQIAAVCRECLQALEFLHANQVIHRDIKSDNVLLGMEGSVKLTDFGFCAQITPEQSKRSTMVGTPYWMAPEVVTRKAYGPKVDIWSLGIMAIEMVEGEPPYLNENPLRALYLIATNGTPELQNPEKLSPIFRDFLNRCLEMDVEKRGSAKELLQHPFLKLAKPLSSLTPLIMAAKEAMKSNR"}, "FGFR1 (h) (human)": {"biological_target": "FGFR1 (h) (human) (UniProt P11362)", "sequence (P11362 456-765 limits assumed)": "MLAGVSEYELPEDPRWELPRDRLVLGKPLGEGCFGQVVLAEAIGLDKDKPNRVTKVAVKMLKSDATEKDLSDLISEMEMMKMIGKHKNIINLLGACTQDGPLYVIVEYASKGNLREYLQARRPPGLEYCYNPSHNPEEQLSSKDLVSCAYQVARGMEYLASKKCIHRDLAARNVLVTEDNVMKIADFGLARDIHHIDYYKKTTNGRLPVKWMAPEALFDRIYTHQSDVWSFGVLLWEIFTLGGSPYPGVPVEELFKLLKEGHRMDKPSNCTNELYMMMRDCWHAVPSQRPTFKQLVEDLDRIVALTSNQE"}, "PKCβI (h) (human)": {"biological_target": "PKCβI (h) (human) (UniProt P05771)"}, "NEK6 (h) (human)": {"biological_target": "NEK6 (h) (human) (UniProt Q9HC98)"}, "MKK6 (h) (human)": {"biological_target": "MKK6 (h) (human) (UniProt P52564)"}, "Ret (V804L) (h) (human)": {"biological_target": "T4, Ret (V804L) (h) (human) (UniProt P07949)", "T4 sequence (looked up)": "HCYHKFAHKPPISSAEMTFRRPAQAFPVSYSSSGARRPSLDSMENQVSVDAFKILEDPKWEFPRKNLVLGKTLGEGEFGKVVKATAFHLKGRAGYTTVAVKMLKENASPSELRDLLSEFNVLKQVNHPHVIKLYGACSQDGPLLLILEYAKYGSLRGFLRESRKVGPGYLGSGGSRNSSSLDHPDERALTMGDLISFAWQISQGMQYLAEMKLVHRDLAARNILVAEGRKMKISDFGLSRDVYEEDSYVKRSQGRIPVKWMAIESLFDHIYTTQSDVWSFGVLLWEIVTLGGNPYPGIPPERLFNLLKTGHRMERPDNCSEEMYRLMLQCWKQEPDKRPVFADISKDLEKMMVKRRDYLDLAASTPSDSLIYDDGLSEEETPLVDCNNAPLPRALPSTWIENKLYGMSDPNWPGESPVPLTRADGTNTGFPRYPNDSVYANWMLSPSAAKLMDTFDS"}},
  "data": [
    {"substance": "MMI-0300 (peptide)", "values": [
      {"measurement": "% activity at 100 µM", "setting": "SGK2 (h) (human)", "value": 56, "unit": "%"},
      {"measurement": "% activity at 100 µM", "setting": "[1]", "value": 82, "unit": "%"},
      {"measurement": "% activity at 100 µM", "setting": "Met(M1268T) (h) (human)", "value": 255, "unit": "%"},
      {"measurement": "% activity at 100 µM", "setting": "PDGFRα (h) (human)", "value": 65, "unit": "%"},
      {"measurement": "% activity at 100 µM", "setting": "DCAMKL2 (h) (human)", "value": 81, "unit": "%"},
      {"measurement": "% activity at 100 µM", "setting": "WNK3 (h) (human)", "value": 77, "unit": "%"},
      {"measurement": "% activity at 100 µM", "setting": "Met(D1246H) (h) (human)", "value": 125, "unit": "%"},
      {"measurement": "% activity at 100 µM", "setting": "IRAK1 (h) (human)", "value": 95, "unit": "%"},
      {"measurement": "% activity at 100 µM", "setting": "JNK3 (h) (human)", "value": 89, "unit": "%"},
      {"measurement": "% activity at 100 µM", "setting": "PKBγ (h) (human)", "value": 20, "unit": "%"},
      {"measurement": "% activity at 100 µM", "setting": "PKCδ (h) (human)", "value": 101, "unit": "%"},
      {"measurement": "% activity at 100 µM", "setting": "Mer (h) (human)", "value": 52, "unit": "%"},
      {"measurement": "% activity at 100 µM", "setting": "MEK1 (h) (human)", "value": 77, "unit": "%"},
      {"measurement": "% activity at 100 µM", "setting": "mTOR/FKBP12 (h) (human)", "value": 145, "unit": "%"},
      {"measurement": "% activity at 100 µM", "setting": "EGFR (h) (human)", "value": 21, "unit": "%"},
      {"measurement": "% activity at 100 µM", "setting": "CDK2/cyclinA (h) (human)", "value": 86, "unit": "%"},
      {"measurement": "% activity at 100 µM", "setting": "Rsk1 (h) (human)", "value": 46, "unit": "%"},
      {"measurement": "% activity at 100 µM", "setting": "PAK2 (h) (human)", "value": 65, "unit": "%"},
      {"measurement": "% activity at 100 µM", "setting": "FGFR1 (h) (human)", "value": 55, "unit": "%"},
      {"measurement": "% activity at 100 µM", "setting": "PKCβI (h) (human)", "value": 78, "unit": "%"},
      {"measurement": "% activity at 100 µM", "setting": "NEK6 (h) (human)", "value": 82, "unit": "%"},
      {"measurement": "% activity at 100 µM", "setting": "MKK6 (h) (human)", "value": 48, "unit": "%"},
      {"measurement": "% activity at 100 µM", "setting": "Ret (V804L) (h) (human)", "value": 79, "unit": "%"}
    ]}
  ]
}
